Test results as given in the supplement of paper PMC9876800.

Test system: peptide library, one residue held at a place counted from the S/T acceptor
Assay: relative phosphorylation of the sub-library (ratio to the mean residue at this position); higher = residue favoured
Settings: human
How it was run: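 Relative sub-library phosphorylation is the ratio of each sub-library's signal to the mean residue at that position. The signal came from phosphorimaging of spots on streptavidin membranes, quantified by densitometry, after purified recombinant kinases reacted with biotinylated degenerate peptide sub-libraries in 384-well plates. Reactions held 50 μM peptide and 50 μM ATP spiked with γ-32P-ATP for 90 min under kinase-specific conditions.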

Chain of ATM, construct: Full length (Q13315 whole entry, looked up): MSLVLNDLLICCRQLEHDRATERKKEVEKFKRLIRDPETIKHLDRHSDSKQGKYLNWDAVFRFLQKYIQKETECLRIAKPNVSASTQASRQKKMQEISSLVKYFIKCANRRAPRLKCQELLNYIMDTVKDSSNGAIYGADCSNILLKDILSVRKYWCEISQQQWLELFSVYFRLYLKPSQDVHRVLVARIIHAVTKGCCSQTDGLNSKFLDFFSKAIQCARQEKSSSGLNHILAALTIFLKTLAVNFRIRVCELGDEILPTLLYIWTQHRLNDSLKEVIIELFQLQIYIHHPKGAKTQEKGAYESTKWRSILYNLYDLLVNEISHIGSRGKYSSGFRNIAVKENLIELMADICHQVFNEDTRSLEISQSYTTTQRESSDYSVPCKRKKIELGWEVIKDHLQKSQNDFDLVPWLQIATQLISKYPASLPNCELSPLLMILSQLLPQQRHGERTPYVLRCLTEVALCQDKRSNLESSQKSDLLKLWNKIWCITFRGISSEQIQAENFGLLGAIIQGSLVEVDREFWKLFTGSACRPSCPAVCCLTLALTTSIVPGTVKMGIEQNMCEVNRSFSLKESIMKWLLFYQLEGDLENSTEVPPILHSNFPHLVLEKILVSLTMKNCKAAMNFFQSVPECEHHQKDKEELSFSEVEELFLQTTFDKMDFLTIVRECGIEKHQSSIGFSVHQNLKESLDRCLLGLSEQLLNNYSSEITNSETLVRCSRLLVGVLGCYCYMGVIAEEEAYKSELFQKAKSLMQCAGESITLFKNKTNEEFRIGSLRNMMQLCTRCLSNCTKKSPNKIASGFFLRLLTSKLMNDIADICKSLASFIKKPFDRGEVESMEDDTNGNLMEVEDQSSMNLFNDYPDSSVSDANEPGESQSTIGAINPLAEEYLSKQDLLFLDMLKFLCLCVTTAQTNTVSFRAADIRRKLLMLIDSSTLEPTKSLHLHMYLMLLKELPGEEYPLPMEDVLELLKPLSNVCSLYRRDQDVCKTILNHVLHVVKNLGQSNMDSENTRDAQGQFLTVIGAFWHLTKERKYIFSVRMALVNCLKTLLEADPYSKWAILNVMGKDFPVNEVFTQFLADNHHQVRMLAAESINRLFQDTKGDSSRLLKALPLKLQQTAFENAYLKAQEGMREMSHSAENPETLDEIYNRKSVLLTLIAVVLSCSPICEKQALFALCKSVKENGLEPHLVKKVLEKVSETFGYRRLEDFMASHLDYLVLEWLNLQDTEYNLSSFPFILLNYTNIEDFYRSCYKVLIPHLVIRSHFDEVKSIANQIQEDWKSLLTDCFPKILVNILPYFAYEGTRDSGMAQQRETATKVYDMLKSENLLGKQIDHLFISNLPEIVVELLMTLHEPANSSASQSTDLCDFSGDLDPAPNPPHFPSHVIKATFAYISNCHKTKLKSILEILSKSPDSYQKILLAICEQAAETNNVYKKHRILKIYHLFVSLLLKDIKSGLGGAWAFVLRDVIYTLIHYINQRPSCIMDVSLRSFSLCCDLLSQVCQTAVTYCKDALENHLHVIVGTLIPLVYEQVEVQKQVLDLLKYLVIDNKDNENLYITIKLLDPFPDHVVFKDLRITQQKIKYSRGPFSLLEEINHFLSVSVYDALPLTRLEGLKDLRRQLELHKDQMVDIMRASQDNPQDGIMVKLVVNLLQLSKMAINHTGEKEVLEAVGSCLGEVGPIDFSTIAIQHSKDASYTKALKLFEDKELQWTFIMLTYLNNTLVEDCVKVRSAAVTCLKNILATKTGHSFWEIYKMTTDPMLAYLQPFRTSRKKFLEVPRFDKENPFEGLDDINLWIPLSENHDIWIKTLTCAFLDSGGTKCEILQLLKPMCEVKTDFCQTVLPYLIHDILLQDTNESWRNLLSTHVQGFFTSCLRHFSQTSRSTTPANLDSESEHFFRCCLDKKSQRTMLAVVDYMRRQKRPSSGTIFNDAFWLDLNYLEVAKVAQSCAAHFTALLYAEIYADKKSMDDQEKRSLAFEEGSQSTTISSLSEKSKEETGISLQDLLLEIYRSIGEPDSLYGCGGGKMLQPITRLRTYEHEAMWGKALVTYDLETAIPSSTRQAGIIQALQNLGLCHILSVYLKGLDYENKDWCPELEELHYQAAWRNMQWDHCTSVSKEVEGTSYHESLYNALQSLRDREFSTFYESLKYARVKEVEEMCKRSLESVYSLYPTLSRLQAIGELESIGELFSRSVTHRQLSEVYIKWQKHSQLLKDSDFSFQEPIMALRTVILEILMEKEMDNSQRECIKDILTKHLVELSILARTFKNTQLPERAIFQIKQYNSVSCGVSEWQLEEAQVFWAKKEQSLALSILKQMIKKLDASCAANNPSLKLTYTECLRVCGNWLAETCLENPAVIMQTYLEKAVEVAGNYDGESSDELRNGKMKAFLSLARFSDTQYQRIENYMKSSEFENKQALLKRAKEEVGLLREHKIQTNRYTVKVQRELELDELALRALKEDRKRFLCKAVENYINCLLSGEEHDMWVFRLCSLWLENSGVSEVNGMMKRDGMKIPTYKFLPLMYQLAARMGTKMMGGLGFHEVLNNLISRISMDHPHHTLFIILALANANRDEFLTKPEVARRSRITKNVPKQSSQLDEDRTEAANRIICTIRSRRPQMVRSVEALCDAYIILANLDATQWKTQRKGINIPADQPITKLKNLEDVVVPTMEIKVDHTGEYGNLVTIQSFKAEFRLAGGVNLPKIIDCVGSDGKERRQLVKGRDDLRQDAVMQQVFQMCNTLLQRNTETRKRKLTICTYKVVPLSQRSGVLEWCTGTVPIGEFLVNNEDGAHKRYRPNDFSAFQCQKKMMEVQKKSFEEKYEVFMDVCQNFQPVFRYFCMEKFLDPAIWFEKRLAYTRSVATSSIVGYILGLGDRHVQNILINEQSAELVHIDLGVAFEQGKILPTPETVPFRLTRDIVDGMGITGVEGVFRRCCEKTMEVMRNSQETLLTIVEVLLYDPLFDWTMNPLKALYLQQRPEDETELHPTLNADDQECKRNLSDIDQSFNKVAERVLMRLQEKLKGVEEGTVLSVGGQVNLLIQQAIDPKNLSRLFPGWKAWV
Chain of AKT1, construct: aa109-end (P31749 109-480, looked up): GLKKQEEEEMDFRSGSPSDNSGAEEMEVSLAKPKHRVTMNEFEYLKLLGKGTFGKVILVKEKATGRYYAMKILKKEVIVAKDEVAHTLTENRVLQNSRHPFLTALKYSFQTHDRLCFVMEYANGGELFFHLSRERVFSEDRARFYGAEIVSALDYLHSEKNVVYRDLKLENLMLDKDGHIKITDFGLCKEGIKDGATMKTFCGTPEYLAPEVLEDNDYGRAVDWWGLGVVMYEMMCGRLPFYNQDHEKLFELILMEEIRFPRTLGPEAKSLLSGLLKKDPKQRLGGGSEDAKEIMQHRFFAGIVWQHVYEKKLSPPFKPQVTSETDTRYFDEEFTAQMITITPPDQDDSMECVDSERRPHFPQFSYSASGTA
Chain of BMPR1B, construct: aa149-end (O00238 149-502, looked up): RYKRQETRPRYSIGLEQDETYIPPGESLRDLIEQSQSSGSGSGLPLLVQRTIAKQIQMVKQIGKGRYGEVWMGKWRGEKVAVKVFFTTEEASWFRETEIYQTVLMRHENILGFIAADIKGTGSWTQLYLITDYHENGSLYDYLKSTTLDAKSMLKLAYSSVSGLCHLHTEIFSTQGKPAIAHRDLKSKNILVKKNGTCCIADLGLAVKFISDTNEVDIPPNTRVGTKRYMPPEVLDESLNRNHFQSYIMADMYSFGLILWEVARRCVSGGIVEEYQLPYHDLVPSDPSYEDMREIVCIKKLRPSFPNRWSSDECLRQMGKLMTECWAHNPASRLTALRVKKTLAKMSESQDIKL

AKT1, construct: aa109-end (from UniProt P31749)
relative phosphorylation
Settings | at +1 | at +2 | at +3 | at +4 | at -1 | at -2 | at -3 | at -4 | at -5
A fixed | 0.492 | 0.908 | 0.834 | 0.83 | 0.739 | 0.942 | 0.543 | 0.894 | 0.938
D fixed | 0.294 | 0.547 | 0.499 | 0.752 | 0.726 | 0.143 | 0.165 | 0.567 | 0.639
E fixed | 0.292 | 0.394 | 0.537 | 0.53 | 0.387 | 0.132 | 0.164 | 0.703 | 0.639
F fixed | 2.31 | 0.76 | 1.03 | 0.662 | 0.832 | 0.504 | 0.271 | 0.734 | 0.929
G fixed | 0.657 | 1.07 | 1.21 | 1.01 | 1.32 | 0.592 | 0.453 | 1.03 | 1.01
H fixed | 0.791 | 1.56 | 1.3 | 1.13 | 1.18 | 0.839 | 0.837 | 1.02 | 1.11
I fixed | 1.7 | 1.02 | 0.838 | 0.646 | 0.337 | 0.414 | 0.245 | 0.66 | 0.74
K fixed | 0.854 | 1.3 | 1.56 | 1.95 | 1.78 | 2.18 | 2.33 | 1.85 | 1.61
L fixed | 1.22 | 1.13 | 0.826 | 0.786 | 0.978 | 1.02 | 0.295 | 0.75 | 0.789
M fixed | 1.69 | 0.787 | 0.839 | 0.773 | 1.13 | 0.498 | 0.282 | 0.9 | 0.859
N fixed | 0.924 | 1.08 | 1.06 | 1.1 | 1.44 | 0.444 | 0.332 | 0.804 | 0.795
P fixed | 0.36 | 0.733 | 0.833 | 1.57 | 1.04 | 0.303 | 0.507 | 0.91 | 1.03
Q fixed | 1.08 | 0.903 | 0.964 | 1.25 | 1.01 | 0.546 | 0.56 | 0.91 | 0.835
R fixed | 0.952 | 1.95 | 1.94 | 1.84 | 1.75 | 7.28 | 9.07 | 2.75 | 2.58
V fixed | 1.4 | 1.11 | 0.782 | 0.702 | 0.449 | 0.44 | 0.238 | 0.757 | 0.727
W fixed | 1.12 | 0.831 | 0.963 | 0.884 | 0.663 | 0.332 | 0.352 | 0.972 | 0.893
Y fixed | 0.853 | 0.913 | 0.979 | 0.593 | 1.24 | 0.392 | 0.355 | 0.785 | 0.877
pThr fixed | 0.455 | 0.493 | 0.573 | 0.668 | 0.301 | 0.348 | 0.322 | 0.767 | 0.724
pTyr fixed | 0.575 | 0.645 | 0.577 | 0.447 | 0.9 | 0.273 | 0.299 | 0.692 | 0.728

ATM, construct: Full length (from UniProt Q13315)
relative phosphorylation
Settings | at +1 | at +2 | at +3 | at +4 | at -1 | at -2 | at -3 | at -4 | at -5
A fixed | 0.429 | 0.858 | 0.748 | 0.776 | 0.759 | 1.18 | 0.922 | 0.959 | 1.1
D fixed | 0.42 | 2.02 | 1.28 | 1.27 | 2.27 | 1.56 | 1.26 | 1.3 | 1.11
E fixed | 0.85 | 2.16 | 1.45 | 1.45 | 1.62 | 1.77 | 1.52 | 1.5 | 1.08
F fixed | 0.701 | 0.658 | 1.5 | 1.23 | 1.1 | 0.868 | 1.14 | 1.2 | 1.4
G fixed | 0.361 | 0.756 | 0.691 | 0.922 | 1.06 | 0.93 | 0.848 | 0.995 | 0.987
H fixed | 0.38 | 0.918 | 0.67 | 0.84 | 1.09 | 0.936 | 0.936 | 0.912 | 0.879
I fixed | 0.594 | 0.872 | 1.03 | 1.08 | 0.405 | 0.685 | 0.814 | 0.906 | 1.06
K fixed | 0.384 | 0.649 | 0.5 | 0.499 | 0.376 | 0.696 | 0.681 | 0.721 | 0.662
L fixed | 0.621 | 0.77 | 1.59 | 1.11 | 1.56 | 0.692 | 0.867 | 0.96 | 0.987
M fixed | 0.672 | 0.787 | 1.26 | 1.25 | 1.05 | 0.85 | 1.18 | 0.995 | 0.971
N fixed | 0.748 | 1.21 | 0.742 | 0.791 | 1.83 | 1.24 | 0.842 | 0.789 | 0.859
P fixed | 0.448 | 1.1 | 0.742 | 0.779 | 0.412 | 0.906 | 0.643 | 0.819 | 0.784
Q fixed | 8.34 | 1.1 | 0.989 | 0.787 | 0.731 | 1.28 | 0.792 | 0.733 | 0.617
R fixed | 0.648 | 0.839 | 0.545 | 0.577 | 0.518 | 1.13 | 1.66 | 0.865 | 0.894
V fixed | 0.521 | 1.01 | 0.875 | 0.873 | 0.387 | 0.716 | 0.671 | 0.818 | 1.1
W fixed | 0.421 | 0.514 | 1.31 | 1.51 | 0.525 | 0.736 | 1.06 | 1.27 | 1.26
Y fixed | 0.466 | 0.798 | 1.08 | 1.25 | 1.31 | 0.823 | 1.17 | 1.25 | 1.25
pThr fixed | 0.577 | 1.47 | 0.933 | 1.49 | 0.748 | 1.37 | 1.15 | 1.21 | 0.84
pTyr fixed | 0.468 | 1.85 | 1.26 | 2.74 | 3.86 | 1.68 | 1.7 | 1.23 | 1.05

BCKDK, construct: Full length (from UniProt O14874)
relative phosphorylation
Settings | at +1 | at +2 | at +3 | at +4 | at -1 | at -2 | at -3 | at -4 | at -5
A fixed | 0.707 | 0.962 | 0.785 | 0.937 | 0.696 | 0.951 | 0.894 | 0.988 | 1.02
D fixed | 0.393 | 1.11 | 2.51 | 0.922 | 1.32 | 0.571 | 0.616 | 0.717 | 0.856
E fixed | 0.404 | 0.981 | 1.16 | 0.957 | 0.351 | 0.544 | 0.654 | 0.821 | 0.72
F fixed | 0.915 | 0.909 | 1.11 | 1.13 | 0.742 | 1.19 | 1.26 | 1.14 | 1.18
G fixed | 0.489 | 1.36 | 1.11 | 0.99 | 1.3 | 1.72 | 1.09 | 1.18 | 1.14
H fixed | 0.698 | 1.31 | 0.929 | 0.973 | 1.69 | 1.33 | 1.17 | 1.14 | 1.26
I fixed | 1.59 | 0.502 | 0.71 | 0.645 | 0.565 | 0.913 | 0.854 | 0.871 | 0.794
K fixed | 0.483 | 0.704 | 0.538 | 0.577 | 0.425 | 0.901 | 0.8 | 0.886 | 1.02
L fixed | 2.58 | 0.628 | 1.03 | 0.656 | 0.607 | 0.855 | 0.877 | 0.964 | 0.858
M fixed | 2.1 | 0.966 | 0.889 | 0.781 | 0.577 | 1.05 | 1.01 | 1.1 | 0.962
N fixed | 0.513 | 1.16 | 0.754 | 0.761 | 4.15 | 0.917 | 0.932 | 0.786 | 0.944
P fixed | 0.404 | 0.61 | 0.831 | 1.08 | 0.432 | 0.866 | 0.976 | 1.05 | 0.819
Q fixed | 0.69 | 1.17 | 0.749 | 0.724 | 0.619 | 0.867 | 0.804 | 0.75 | 0.678
R fixed | 0.671 | 1.43 | 0.834 | 0.859 | 0.562 | 0.893 | 1.02 | 0.937 | 1.01
V fixed | 1.84 | 0.553 | 0.641 | 0.709 | 0.514 | 0.699 | 0.734 | 0.791 | 0.879
W fixed | 0.688 | 1.35 | 1.53 | 2.53 | 1.06 | 1.51 | 1.74 | 1.64 | 1.73
Y fixed | 1.84 | 1.28 | 0.896 | 1.76 | 1.39 | 1.23 | 1.57 | 1.24 | 1.13
pThr fixed | 0.535 | 0.616 | 0.681 | 0.682 | 0.541 | 0.847 | 0.904 | 0.931 | 0.896
pTyr fixed | 0.502 | 0.681 | 0.53 | 1.46 | 0.581 | 0.994 | 1.31 | 1.14 | 0.896

BMPR1B, construct: aa149-end (from UniProt O00238)
relative phosphorylation
Settings | at +1 | at +2 | at +3 | at +4 | at -1 | at -2 | at -3 | at -4 | at -5
A fixed | 1.07 | 1.39 | 1.01 | 0.984 | 0.997 | 0.924 | 1.21 | 1.09 | 1.34
D fixed | 1.83 | 1.33 | 1.58 | 0.977 | 1.64 | 2.17 | 2.03 | 2.24 | 1.67
E fixed | 5.67 | 1.49 | 1.56 | 1.15 | 1.77 | 6.66 | 2.3 | 1.75 | 1.49
F fixed | 0.422 | 0.61 | 0.873 | 1 | 0.771 | 0.382 | 0.596 | 0.674 | 0.73
G fixed | 0.798 | 1.57 | 0.953 | 1.03 | 0.637 | 0.725 | 1.14 | 1.26 | 1.2
H fixed | 0.552 | 0.988 | 0.857 | 0.895 | 0.919 | 0.493 | 0.923 | 0.855 | 0.972
I fixed | 0.631 | 0.606 | 0.753 | 0.984 | 0.833 | 0.496 | 0.586 | 0.704 | 0.681
K fixed | 0.404 | 1.04 | 0.655 | 1.14 | 0.73 | 0.386 | 0.69 | 0.818 | 0.938
L fixed | 0.503 | 0.727 | 0.935 | 0.888 | 1.1 | 0.553 | 0.663 | 0.733 | 0.766
M fixed | 0.62 | 0.757 | 0.869 | 0.949 | 1.29 | 0.497 | 0.773 | 0.86 | 0.798
N fixed | 0.743 | 0.911 | 0.961 | 0.926 | 0.901 | 0.679 | 1.08 | 0.92 | 1
P fixed | 0.344 | 1.38 | 1.13 | 1.21 | 0.627 | 0.499 | 0.977 | 0.998 | 1.09
Q fixed | 0.676 | 0.809 | 0.945 | 0.981 | 0.965 | 0.702 | 1.07 | 1.01 | 0.839
R fixed | 0.48 | 0.842 | 0.891 | 0.924 | 0.791 | 0.439 | 0.803 | 0.801 | 0.869
V fixed | 1.2 | 0.664 | 0.97 | 0.908 | 1.02 | 0.581 | 0.697 | 0.769 | 0.921
W fixed | 0.519 | 0.897 | 1.01 | 1.02 | 0.844 | 0.397 | 0.659 | 0.744 | 0.892
Y fixed | 0.528 | 0.985 | 1.04 | 1.04 | 1.17 | 0.415 | 0.795 | 0.764 | 0.799
pThr fixed | 6.15 | 2.16 | 1.11 | 1.13 | 1.03 | 2.23 | 2.34 | 1.67 | 1.35
pTyr fixed | 1.18 | 0.924 | 1.3 | 0.928 | 1.8 | 0.801 | 1.81 | 1.51 | 1.41
